Test results reported in paper PMC10202959, “A superior extracellular matrix binding motif to enhance the regenerative activity and safety of therapeutic proteins” (NPJ Regenerative Medicine, 2023).

B1: human fibrinogen (complex)
chain 1: ADSGEGDFLAEGGGVRGPRVVERHQSACKDSDWPFCSDEDWNYKCPSGCRMKGLIDEVNQDFTNRINKLKNSLFEYQKNNKDSHSLTTNIMEILRGDFSSANNRDNTYNRVSEDLRSRIEVLKRKVIEKVQHIQLLQKNVRAQLVDMKRLEVDIDIKIRSCRGSCSRALAREVDLKDYEDQQKQLEQVIAKDLLPSRDRQHLPLIKMKPVPDLVPGNFKSQLQKVPPEWKALTDMPQMRMELERPGGNEITRGGSTSYGTGSETESPRNPSSAGSWNSGSSGPGSTGNRNPGSSGTGGTATWKPGSSGPGSTGSWNSGSSGTGSTGNQNPGSPRPGSTGTWNPGSSERGSAGHWTSESSVSGSTGQWHSESGSFRPDSPGSGNARPNNPDWGTFEEVSGNVSPGTRREYHTEKLVTSKGDKELRTGKEKVTSGSTTTTRRSCSKTVTKTVIGPDGHKEVTKEVVTSEDGSDCPEAMDLGTLSGIGTLDGFRHRHPDEAAFFDTASTGKTFPGFFSPMLGEFVSETESRGSESGIFTNTKESSSHHPGIAEFPSRGKSSSYSKQFTSSTSYNRGDSTFESKSYKMADEAGSEADHEGTHSTKRGHAKSRPV
chain 2: QGVNDNEEGFFSARGHRPLDKKREEAPSLRPAPPPISGGGYRARPAKAAATQKKVERKAPDAGGCLHADPDLGVLCPTGCQLQEALLQQERPIRNSVDELNNNVEAVSQTSSSSFQYMYLLKDLWQKRQKQVKDNENVVNEYSSELEKHQLYIDETVNSNIPTNLRVLRSILENLRSKIQKLESDVSAQMEYCRTPCTVSCNIPVVSGKECEEIIRKGGETSEMYLIQPDSSVKPYRVYCDMNTENGGWTVIQNRQDGSVDFGRKWDPYKQGFGNVATNTDGKNYCGLPGEYWLGNDKISQLTRMGPTELLIEMEDWKGDKVKAHYGGFTVQNEANKYQISVNKYRGTAGNALMDGASQLMGENRTMTIHNGMFFSTYDRDNDGWLTSDPRKQCSKEDGGGWWYNRCHAANPNGRYYWGGQYTWDMAKHGTDDGVVWMNWKGSWYSMRKMSMKIRPFFPQQ
chain 3: YVATRDNCCILDERFGSYCPTTCGIADFLSTYQTKVDKDLQSLEDILHQVENKTSEVKQLIKAIQLTYNPDESSKPNMIDAATLKSRKMLEEIMKYEASILTHDSSIRYLQEIYNSNNQKIVNLKEKVAQLEAQCQEPCKDTVQIHDITGKDCQDIANKGAKQSGLYFIKPLKANQQFLVYCEIDGSGNGWTVFQKRLDGSVDFKKNWIQYKEGFGHLSPTGTTEFWLGNEKIHLISTQSAIPYALRVELEDWNGRTSTADYAMFKVGPEADKYRLTYAYFAGGDAGDAFDGFDFGDDPSDKFFTSHNGMQFSTWDNDNDKFEGNCAEQDGSGWWMNKCHAGHLNGVYYQGGTYSKASTPNGYDNGIIWATWKTRWYSMKKTTMKIIPFNRLTIGEGQQHHLGGAKQAGDV
modifications: Plasma-derived disulfide-linked hexamer (alpha-beta-gamma)2, fibrinopeptides A and B retained, N-glycosylated. Isoforms are not printed: the major plasma forms are taken by convention, i.e. the …

Legend:
Settings in all cases: both partners purified
[1] = target: B1; experiment: ELISA; plates coated with 100 nM PlGF-2, AREG or NRTN (1 h, 37 °C), blocked with 1% BSA in PBS-T; ECM proteins at increasing concentration in PBS-T with 0.1% BSA; bound ECM protein detected with HRP-conjugated antibodies; one site specific binding model; n = 3
[2] = target: human plasma fibronectin (human); experiment: as above
[3] = target: T1, human vitronectin (human, UniProt P04004 20-478); experiment: as above
T1 construct: vitronectin, human; source: bought: Peprotech
T1 sequence (P04004 20-478): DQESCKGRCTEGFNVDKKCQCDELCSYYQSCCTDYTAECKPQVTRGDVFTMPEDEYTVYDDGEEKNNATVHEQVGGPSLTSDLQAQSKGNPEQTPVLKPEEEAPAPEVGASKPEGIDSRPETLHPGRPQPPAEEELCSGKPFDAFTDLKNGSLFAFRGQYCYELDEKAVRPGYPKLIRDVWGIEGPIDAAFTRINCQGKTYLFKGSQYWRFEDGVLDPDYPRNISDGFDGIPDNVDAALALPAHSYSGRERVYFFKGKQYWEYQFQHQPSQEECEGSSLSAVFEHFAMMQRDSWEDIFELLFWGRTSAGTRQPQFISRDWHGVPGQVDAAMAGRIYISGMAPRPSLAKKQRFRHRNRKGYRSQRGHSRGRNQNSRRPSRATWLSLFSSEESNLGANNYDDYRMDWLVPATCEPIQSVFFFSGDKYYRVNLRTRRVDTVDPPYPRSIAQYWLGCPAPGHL

[4] = target: T2, human tenascin C (human, UniProt P24821 23-2201); experiment: as above
T2 construct: tenascin C, human; also called Tenacin C; source: bought: R&D Systems
T2 sequence (P24821 23-2201): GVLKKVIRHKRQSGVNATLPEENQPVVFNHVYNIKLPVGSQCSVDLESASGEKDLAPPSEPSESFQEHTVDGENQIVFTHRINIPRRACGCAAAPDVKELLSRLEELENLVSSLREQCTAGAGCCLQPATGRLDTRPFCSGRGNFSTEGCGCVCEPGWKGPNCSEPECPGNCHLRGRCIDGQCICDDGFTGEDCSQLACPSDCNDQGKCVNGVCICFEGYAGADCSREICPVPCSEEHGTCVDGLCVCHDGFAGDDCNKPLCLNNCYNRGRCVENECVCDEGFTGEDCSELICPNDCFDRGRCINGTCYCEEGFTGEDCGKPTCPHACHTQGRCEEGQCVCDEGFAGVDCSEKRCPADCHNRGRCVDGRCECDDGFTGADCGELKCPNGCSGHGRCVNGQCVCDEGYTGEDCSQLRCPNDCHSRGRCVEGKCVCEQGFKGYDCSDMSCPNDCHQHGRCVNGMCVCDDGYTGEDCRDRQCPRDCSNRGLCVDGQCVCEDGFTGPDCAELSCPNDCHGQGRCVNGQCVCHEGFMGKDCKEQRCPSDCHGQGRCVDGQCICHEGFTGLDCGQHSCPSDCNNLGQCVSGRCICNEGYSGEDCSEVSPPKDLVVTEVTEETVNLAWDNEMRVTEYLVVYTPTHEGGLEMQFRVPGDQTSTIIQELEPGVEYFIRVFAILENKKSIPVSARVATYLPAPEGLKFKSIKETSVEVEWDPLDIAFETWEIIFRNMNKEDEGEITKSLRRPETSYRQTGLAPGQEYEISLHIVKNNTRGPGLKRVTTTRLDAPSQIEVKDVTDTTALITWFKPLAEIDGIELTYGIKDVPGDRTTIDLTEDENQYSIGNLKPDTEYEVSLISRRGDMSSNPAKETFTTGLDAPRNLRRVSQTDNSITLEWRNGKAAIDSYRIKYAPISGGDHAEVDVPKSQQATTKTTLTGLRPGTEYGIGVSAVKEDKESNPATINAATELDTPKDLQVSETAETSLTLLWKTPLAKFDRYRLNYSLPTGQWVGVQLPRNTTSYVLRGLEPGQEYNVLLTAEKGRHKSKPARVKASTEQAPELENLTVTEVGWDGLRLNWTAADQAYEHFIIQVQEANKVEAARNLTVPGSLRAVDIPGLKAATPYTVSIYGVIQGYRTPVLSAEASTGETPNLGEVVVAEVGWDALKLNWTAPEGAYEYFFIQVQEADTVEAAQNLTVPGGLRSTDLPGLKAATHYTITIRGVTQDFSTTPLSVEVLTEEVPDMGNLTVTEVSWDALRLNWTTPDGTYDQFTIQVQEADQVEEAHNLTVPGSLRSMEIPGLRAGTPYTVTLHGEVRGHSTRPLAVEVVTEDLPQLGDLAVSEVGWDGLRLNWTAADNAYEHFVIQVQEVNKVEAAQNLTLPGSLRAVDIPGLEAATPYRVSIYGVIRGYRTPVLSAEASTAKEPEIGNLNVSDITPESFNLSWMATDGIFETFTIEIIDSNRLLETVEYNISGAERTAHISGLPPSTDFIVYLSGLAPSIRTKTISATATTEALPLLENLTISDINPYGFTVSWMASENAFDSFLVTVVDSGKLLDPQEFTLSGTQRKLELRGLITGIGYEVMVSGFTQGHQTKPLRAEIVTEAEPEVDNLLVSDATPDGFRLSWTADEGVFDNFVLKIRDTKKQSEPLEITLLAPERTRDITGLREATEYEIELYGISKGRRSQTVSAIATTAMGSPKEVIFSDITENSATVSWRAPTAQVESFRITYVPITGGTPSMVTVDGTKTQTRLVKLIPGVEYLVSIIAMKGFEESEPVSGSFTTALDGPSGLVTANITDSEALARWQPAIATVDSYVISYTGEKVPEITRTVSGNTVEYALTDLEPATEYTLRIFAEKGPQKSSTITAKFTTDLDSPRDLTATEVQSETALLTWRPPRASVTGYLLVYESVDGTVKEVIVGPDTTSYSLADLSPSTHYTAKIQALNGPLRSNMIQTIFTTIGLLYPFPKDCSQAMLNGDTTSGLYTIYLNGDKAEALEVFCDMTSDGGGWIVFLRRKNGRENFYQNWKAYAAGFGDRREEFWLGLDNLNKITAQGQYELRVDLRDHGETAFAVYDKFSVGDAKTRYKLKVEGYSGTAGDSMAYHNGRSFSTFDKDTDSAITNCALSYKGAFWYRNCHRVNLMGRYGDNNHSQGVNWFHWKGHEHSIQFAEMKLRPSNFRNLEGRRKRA

[5] = target: B1; experiment: ELISA; plates coated with 100 nM ECM protein in PBS (1 h, 37 °C), blocked with 1% BSA in PBS-T; PDGF-BB or IL-1Ra variants at increasing concentrations in PBS-T with 0.1% BSA, 1 h at room temperature; detected with biotinylated antibodies; one site specific binding model; n = 3
Target sequence in this assay (P02671 36-866): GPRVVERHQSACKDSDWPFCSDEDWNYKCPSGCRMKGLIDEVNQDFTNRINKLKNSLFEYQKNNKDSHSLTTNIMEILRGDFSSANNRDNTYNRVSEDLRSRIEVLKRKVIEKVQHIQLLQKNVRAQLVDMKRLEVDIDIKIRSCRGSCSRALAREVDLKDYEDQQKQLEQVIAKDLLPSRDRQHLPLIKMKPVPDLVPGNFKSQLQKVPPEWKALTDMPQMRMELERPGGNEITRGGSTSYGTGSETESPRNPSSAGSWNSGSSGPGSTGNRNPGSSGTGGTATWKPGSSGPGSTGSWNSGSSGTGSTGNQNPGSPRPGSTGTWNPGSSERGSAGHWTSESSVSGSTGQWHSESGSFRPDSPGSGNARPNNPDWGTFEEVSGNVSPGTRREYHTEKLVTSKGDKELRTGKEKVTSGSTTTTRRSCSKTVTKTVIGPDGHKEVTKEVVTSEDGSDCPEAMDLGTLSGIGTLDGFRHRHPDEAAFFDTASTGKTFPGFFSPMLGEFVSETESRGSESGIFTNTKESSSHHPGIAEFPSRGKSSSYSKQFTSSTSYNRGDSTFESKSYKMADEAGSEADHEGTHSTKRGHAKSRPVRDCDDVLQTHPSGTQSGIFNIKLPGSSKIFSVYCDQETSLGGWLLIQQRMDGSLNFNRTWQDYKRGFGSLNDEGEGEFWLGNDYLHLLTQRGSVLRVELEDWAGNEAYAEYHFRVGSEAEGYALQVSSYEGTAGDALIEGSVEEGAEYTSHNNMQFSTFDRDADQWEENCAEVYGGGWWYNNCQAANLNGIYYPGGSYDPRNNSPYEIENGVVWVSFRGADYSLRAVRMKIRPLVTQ

[6] = target: human plasma fibronectin (human); experiment: as above
[7] = target: T1, human vitronectin; experiment: as above
[8] = target: T2, human tenascin C; experiment: as above
[9] = target: T3, AREG26-38/PDGF-BB (human | ); experiment: as above
T3 construct: platelet-derived growth factor subunit B; AREG26-38 at the N-terminus of PDGF-B; also called AREG126-138/PDGF-BB; engineered PDGF-BB
T3 sequence (P02671 36-866): as above

[10] = target: T4, AREG26-38/IL-1Ra (human | ); experiment: as above
T4 construct: interleukin-1 receptor antagonist protein; Both the His tag and AREG26-38 are said to stand at the N-terminus; also called AREG126-138/IL-1Ra; engineered IL-1Ra; source: E. coli BL21 (DE3), pET-22b, soluble fraction, purified (Ni column)
T4 sequence (P02671 36-866): as above

Binder	Kd [1] [nM]	Kd [2] [nM]	Kd [3] [nM]	Kd [4] [nM]	Kd [5] [nM]	Kd [6] [nM]	Kd [7] [nM]	Kd [8] [nM]	Kd [9] [nM]	Kd [10] [nM]
neurturin (natural protein, human, UniProt Q99748 96-197, looked up, neurturin; also called NRTN; source: bought: Peprotech (carrier-free recombinant)) ARLGARPCGLRELEVRVSELGLGYASDETVLFRYCAGACEAAARVYDLGLRRLRQRRRLRRERVRAQPCCRPTAYEDEVSFLDAHSRYHTVHELSARECACV	390	79.4	53.1	55.7	–	–	–	–	–	–
placenta growth factor-2 (natural protein, human, UniProt P49763-3 19-170, looked up, placenta growth factor, PlGF-2; also called PlGF; PlGF-2; source: bought: Peprotech (carrier-free recombinant)) LPAVPPQQWALSAGNGSSEVEVVPFQEVWGRSYCRALERLVDVVSEYPSEVEHMFSPSCVSLLRCTGCCGDENLHCVPVETANVTMQLLKIRSGDRPSYVELTFSQHVRCECRPLREKMKPERRRPKGRGKRRREKQRPTDCHLCGDAVPRR	14.1	17.2	13.2	79.4	–	–	–	–	–	–
interleukin-1 receptor antagonist (wild type) (natural protein, UniProt P25085 27-178, looked up, interleukin-1 receptor antagonist protein; also called IL-1Ra; source: bought: Peprotech) RPSGKRPCKMQAFRIWDTNQKTFYLRNNQLIAGYLQGPNIKLEEKIDMVPIDLHSVFLGIHGGKLCLSCAKSGDDIKLQLEEVNITDLSKNKEEDKRFTFIRSEKGPTTSFESAACPGWFLCTTLEADRPVSLTNTPEEPLIVTKFYFQEDQ	–	–	–	–	640	153	96.5	137	–	–
platelet-derived growth factor-BB (wild type) (natural protein, UniProt P31240 82-190, looked up, platelet-derived growth factor subunit B; also called PDGF-BB; source: bought: Peprotech) SLGSLAAAEPAVIAECKTRTEVFQISRNLIDRTNANFLVWPPCVEVQRCSGCCNNRNVQCRASQVQMRPVQVRKIEIVRKKPIFKKATVTLEDHLACKCETIVTPRPVT	–	–	–	–	210	74.2	29.7	87.8	–	–
amphiregulin (natural protein, human, UniProt P15514 101-187, looked up, amphiregulin; it is a soluble form, not the 252 aa precursor (surmise); also called AREG; source: bought: Peprotech (carrier-free recombinant)) SVRVEQVVKPPQNKTESENTSDKPKRKKKGGKNGKNRRNRKKKNPCNAEFQNFCIHGECKYIEHLEAVTCKCQQEYFGERCGEKSMK	7.4	8.9	9.3	11	–	–	–	–	–	–
B1	–	–	–	–	–	–	–	–	13.9	16.9
